The data set can be described thus: soluble on expression in E. coli; label from the status in PepcDB or PDB records.
Take “MGSDKIHHHHHHMWFRSKPGKSRAAAKGRDVQSTPKASTDVVLERVRLPVDLLQPGMKVVKLDRPWTEVPVLFQGFTLQTEAEARVLRQYCAWVVVEDEAERLAPVLDQIPHLKQRTTEPLQETRTLEQELPRAADTWSRTQQFVEKLIRDIEQNNDLELASARPLIRSCVDSVKTNASAMFWMARIKHRDAYTAEHCLRVAILTVAFARFLGLPEDDLEVAGMCGLLHDIGKLRVPDEILNKPGPLSPQEYEVMRKHTTLGHELLKQDPSLDPIISDVTLHHHERIDGRGYPQQLPEWQISRFARLIAIVDAYDAMTSDRCYRDGMSPADAVRILYKNRAQQFDADMVEAFIRMIGIYPPGSLVELNTGEVALVVSTHPGRKLKPKVEILLDNNKHPVTPRVMDLGSQTTTDGPVREIKAPLPDGAFGISLEGRVKQLMAKTIANHS”: the “soluble on expression in E. coli” value was “not soluble”.

Consider “MVVSKMNKDAQMRAAINQKLIETGERERLKELLRAKLIECGWKDQLKAHCKEVIKEKGLEHVTVDDLVAEITPKGRALVPDSVKKELLQRIRTFLAQHASL”, for which the “soluble on expression in E. coli” value is on record as “soluble”. For “MDSRVWLPLIGAHLLPRDISVITQMIANNNNTSISRSSTNSSKPEEKNSKKFLIERFLDDDPSPPASILSPSPKAAIPSPIINPAVEFVNGGYGVKNPLAPLISSFETTSIPCSTVSPSSLISSSKDEFQDSLTCHICGKKFGLQRLLNRHIKCHSDLKRYLCTFCGKGFNDTFDLKRHTRTHTGVRPYKCEQCEKSFTQRCSLESHLRKVHGVTHQYAYKERRSKVFVCEDCGYTDEKFEVYLSHIKVVHPFSAAYLRFTQLQKKNSSMKPEQLSKISL”, the “soluble on expression in E. coli” value is listed as “not soluble”. For “MSLKTKFGKCIYISPSGYKVYQNLLYRWLTLGSEAWQTVINRYIPRRPGLHYLQILTLMARKFPNDCCLLGLGGAGIAHLLGAQKTIRSIVAVESSEEVIQIAKKFFMTDLIPHFTITHQNARDFVRENKKTFQHMLLDLYDATHFPDECHSMDFFIHCKKQLTDDGFLAVNLANSQEQWALVQLIKKQFPSNIIIPIKKCANIVVIASKNDNKDLFIKQVRNTNEIKKITWVKDWGYVAEYEGHHHHHH”, the “soluble on expression in E. coli” value was “not soluble”. For “MQSFLQLVAHDLYAKIGNDLSRTVLVFPNKRANLFFNEHLAGESDQPIWSPAAMSISDLFRKLSVQKAGDPIRLVCELYKVFREETESQETLDDFYFWGELLISDFDDVDKNLVDANKLFSNLQDLKNLMDDYEFLDKEQEEAIQQFFQNFSIERRTVLKEKFISLWDKLGTIYHRYRENLAELGIAYEGMLYRNVIEQLDTTRLKYDKYIFVGFNVLNKVETKFFQLLQDADKAMFYWDYDLFYTKQIVKHEAGEFINRNLKLFPNELPESCFDTLRKPKNIRYISASTENAQARFLPEWVQSTLSTANEEKENAVVLCNEALLLPVLHSIPQEVENVNITMGFPLAQTPVYSFINAAMELQTNGYRTATGRFTYETVSAILKHPYTRQLSINAEPLERELTKTNRFYPLPSELKMDDFLIKLFTPRSGIKELCDYLTELIKDISLLYREESEYNDIFNQLYRESLFKSYTTINRLYSLIETGELNVRTDTLRRLVSKVLTASNIPFHGEPAIGMQVMGVLETRNLDFRNIILLSLNEGQLPKSGGDSSFIPYNLRKAFGMTTIEHKNAVYAYYFYRLIQRAENITLLYNTSSNGLNRGEESRFMLQLLVEGPHKITREYLEAGQSPQGTTDISIEKTPEVFERLRCSYDCSNPQSYILSPSALNAYLDCRLKFYYRYVARLKAPDEVSAEIDSALFGTIFHLSAQLAYTDLTANRKIIQKEDLERLLRNEVKLQNYVDLAFKQELFKVPADEKPEYNGVQLINSKVIVSYLKQLLRNDLQYAPFEMVAMEKPVAEKITIQTGQGPITLRLGGTIDRMDAKDTTLRIVDYKTGGSPKTPANIEQLFTPSETRPNYIFQTFLYAAIMSRQQSLKVAPSLLYIHRAASESYSPVIEMGEPRQPKIPVNNFAFFEDEFRERLQRLLKEIFDENEPFTQTEDTKKCAYCDFKAICKR”, the “soluble on expression in E. coli” value is on record as “not soluble”. Regarding “MEKVHYAAIDVGSNAVRLLIKCVNSEGMEEPLSKVLIMRVPIRLGEDSFTKGYIGEEKTDNMVRLMRAYYEMMQIYRVKDYRACATSAMRDASNAEAVIAQIREKTGIHIDIIDGDEEARLVSDNHIEQIISDGGNYIYLDVGGGSTELTIPAAEIFLEVADITGAKTIIAPIVGLADGIIEDLYIRHQSQPSLEHHHHHH”, the “soluble on expression in E. coli” value is “soluble”. For the sequence “MLTVDQVKELVGEIKDPIIDVPLKETEGIVEVSIKEEKEHVSVKLAMAQLGGAPQLDLQMAVVNALKENGAKTVGIRFETLPEEKVNQFKPKEENKPKTIEGLLSQNNPVEFIAIASGKGGVGKSTVAVNLAVALAREGKKVGLVDADIYGFSVPDMMGIDEKPGIKGKEVIPVERHGVKVISMAFFVEENAPVIWRGPMLGKMLTNFFTEVKWGDIEYLILDLPPGTGDVALDVHTMLPSSKEIIVTTPHPTAAFVAARAGAMAKHTDHSILGVIENMSYFESKETGNKEYVFGKGGGTKLADELNTQLLGELPLEQPSWNPKDFAPSIYQSDDRLGKIYSSIAQKVIAATNKLEHHHHHH”, the “soluble on expression in E. coli” value was “soluble”.

In the case of “MALKATIYKATVNVADLDRNQFLDASLTLARHPSETQERMMLRLLAWLKYADERLQFTRGLCADDEPEAWLRNDHLGIDLWIELGLPDERRIKKACTQAAEVALFTYNSRAAQIWWQQNQSKCAQFANLSVWYLDDEQLAKVSAFADRTMTL”, the “soluble on expression in E. coli” value is given as “not soluble”. On to “MSLVNDITYGREAEVWPRDYSMLARRIQFLRFNDYPIKLVSSNGHSIIGYISKFNQKENMILASDEAKGNNRVEVKLESIASLEELLVGKDFTTRLIVGDVFNNQPCPPTKKDFFSICNKCFKQGIGIKVHMLDGRILTGKTTGVNACQVGIIKSNGNHMQIMFDWVSRITSSDYSGEGHHHHHH”, for which the “soluble on expression in E. coli” value is “soluble”. As for “QQVRQSPQSLTVWEGETAILNCSYEDSTFNYFPWYQQFPGEGPALLISIRSVSDKKEDGRFTIFFNKREKKLSLHITDSQPGDSATYFCAARYQGGRALIFGTGTTVSVSP”, the “soluble on expression in E. coli” value is “soluble”.

As for “MAIKGLEQAVENLSRISRTAVPGAAAMAINRVASSAISQSASQVARETKVRRKLVKERARLKRATVKNPQARIKVNRGDLPVIKLGNARVVLSRRRRRKKGQRSSLKGGGSVLVVGNRRIPGAFIQQLKNGRWHVMQRVAGKNRYPIDVVKIPMAVPLTTAFKQNIEQIRRERLPKELGYALQHQLRMVIKR”, the “soluble on expression in E. coli” value is on record as “not soluble”. On to “MSLAEQESLALFDDTTEELFMKGTMLSTIFYNAENLFSVVRILVKETNADWDEKDIIVTGFFPALHEQEVYTFYGKMQEHAKFGQQFKADRFRKEMPQSRAGLINYLSGELFKGIGKVTAENIVDTIGDDAITKILSDPSLLNTVPKLPSGAAESLLASLRENQGLEHVMVGLNEYGFGPQLSMKIFQAYKQNAIEVLENNPYKLIEDVKGIGFQRADELGRKLGLGGNHPERLRAGILFMLDSVCMQQGHVYMEQEVLLGEVTYLLEESEGIRIDQSILVAQVEKLAEEQKIITENTRVYMPSLYYSESGFAYHVKRMLKQTEYQEQFPQSEFLLALGELEERIGVHYGDSQRQALEQALMSPMLVLTGGPGTGKTTVIKGIVELYAELNGVSLDPHAYKDGATFPVLLAAPTGRAAKRMSESTGLPAMTIHRLLGMNGQEQMDDDAERLIDGRLLIVDEMSMVDIWLANQLFRALPAHMQVVLVGDQDQLPSVGPGQVLKDILQSEQIPTVALSDIYRQKDGSSIIEMAHYIKEGMLPADFTKNSADRSFFHCTVNQIGDVVEQVVKNAKNKGFRAKDIQVLAPMYRGPAGIDILNKKLQEIFNPNDTGRRKEVQFGDIKYRVHDKVLQLINQPEKNVFNGDIGEIVSIIYAKENTEKQDLIVVQFDQTEVSYYRQEFNQLTHAYCCSIHKAQGSEFPIVIMPIVRSYYRMLRRDLLYTGVTRSKQFLILCGEEEAFRMGIERIDENKRNTTLSERLMSEDVLLEQMTNKRILTAENITEIDPMIGMEGITPEQFMVGEGHHHHHH”, for which the “soluble on expression in E. coli” value is given as “soluble”. Under “MGSDKIHHHHHHMYNEYQPSLLLAPYIDKYWEFKGNPDYGMKINILPDGCTDFIFTLGEVADIAEQESLIMQPYRSYFVGPMSRYSTLITYAKSIHMFGIRFLPCGLFRFMQLPLEELGNQRISTFESGGIFNDSLAERLCEQPYIQDKIRLIESFLTQALCTNNKIEKQISYAVDCINLSKGQLPIRSLVENVCLCQRHFERKFKHQTGYSPKEYSRIIKFKNAVDLLRSTSSNQLFSVAIEAGYYDTAHLSKEIKALSGNTPGSFLSLPVTEETTLTYLKL” stands “not soluble”; under “VSDGEQAKSRRRRGRRRGRRAAATAENHMDAQPAGDATPTPATAKRSRSRSPRRGSTRMRTVHETSAGGLVIDGIDGPRDAQVAALIGRVDRRGRLLWSLPKGHIELGETAEQTAIREVAEETGIRGSVLAALGRIDYWFVTDGRRVHKTVHHYLMRFLGGELSDEDLEVAEVAWVPIRELPSRLAYADERRLAEVADELIDKLQSDGPAALPPLPPSSPRRRPQTHSRARHADDSAPGQHNGPGPGP”, “not soluble”.

As for “MSLKIYESYEDLPKLKLPYGNEVFISDSTIRDGSQMPGIVLSREHKIQIYEYLHEIGIEKLEAFVFNKRDRDAVDLMFDKGYEFPEITGWARSSRADIDKILEVDGIEETGILMSVSDTHIHSKMRLSGREEAEERYLDALQYAVDHGLKTRAHLEDMTRADNYGFVFPLVKKIMEIDPDCIIRVCDTVGYGMPFMNIDEPYGIPKIIQHLKKEIGVKNIETHIHDDYGFGSASSIAGFWHGANWTSVTFLGIGERAGNSEMEKILLFLADRVEGFDKYNLEPVTRFAEFMEKELGLRVPRNKAVVGKNIFAHESGIHAAGVLKNPFNYEPYPPELVGGTRLLLIGDSSGLEVIRYKVQETLNNLLDVETVVEKDDRRLLKIQKEIQKLYDKEERVSCISDEELLAYVEKYFLYQPISDPARTGRGKLKNRGKIQEPVEEKEGHHHHHH”, the “soluble on expression in E. coli” value is “not soluble”. With “MSLADIIIHNGSLITFDEARPQAQALAIQGGMIAAVGSDAEILALAGPETRLIDAGGGTVLPGFIDSHVHLFGGSVELDCLSLYGVKGLDAMRAAIQPYAQANPDDALVFCVMADYDILGTGHTLTRHDLDSILADRPLAMFAPDHHTVWANTAALEATGLLQGGEVDAGSLIVLGEDGLANGELLEPGAYGPILGLTRHGGREMLGLTTGKDPEPPATPDQRARDKDVIARGLAHCAAQGITGLHLMDGNRYQLELLTELEAEGRLLCRCEVPFHMKGTDPVERMTAEAPAMRAAYRGDKVRCNHLKMFIDGVIESGTALMLRPYPGELGANDNTGDEVFTQEHFTACCVEADRLGFQIAVHAIGDAGVRRTIDAFEAARRANGTRDSRHRIEHIEVIHPDDIPRLAELDIVASLQPGHAPRGHVFPPGAVGQYLHPDQIVGAYAWQTIRETGARVVFSTDWPVIPVDVMPSLRAAIAPLDLGPDWPDQSQSLMDTLASYTRDNAWVEFNEDSKGRLKVGMAADIAVLSHDLTALAPDDITQAAAMVTIMDGAVTYQREGHHHHHH”, the “soluble on expression in E. coli” value was “soluble”.
